The source of these data is patent US20110283945A1.

This experiment concerns the target trypsin activity of mated D. melanogaster female hemolymph. Description: cell-based or functional assay.

“Bowman-Birk Inhibitor (BBI), trypsin/chymotrypsin inhibitor from soybeans (from UniProt P01055 40-110)” returned a reduced cleavage of the trypsin substrate N-Bnz-R-pna by mated female hemolymph of 78%.
